In article PMC12012759 (Protein Science : A Publication of the Protein Society, 2025):

Tests used:
Assay in all cases: ELISA
Settings in all cases: both partners purified
[1] = biological target: T1, Fc fusion of Severe acute respiratory syndrome coronavirus 2 P0DTC2 (SARS‐CoV‐2 Wuhan, UniProt P0DTC2)
T1 construct: also called RBD‐Fc; RBD

[2] = biological target: full‐length SARS‐CoV‐2 spike protein (1273 amino acids) (SARS-CoV-2 Wuhan, UniProt P0DTC2)
human serum albumin = human serum albumin (Homo sapiens, UniProt P02768)

Measured: binding result

B1: Clostridioides difficile toxin A‐specific A20.1 VHH (VHH)
VHH: QVQLVESGGGLAQAGGSLRLSCAASGRTFSMDPMAWFRQPPGKEREFVAAGSSTGRTTYYADSVKGRFTISRDNAKNTVYLQMNSLKPEDTAVYYCAAAPYGANWYRDEYAYWGQGTQVTVSS
no binding: all assays above
